Laboratory results published in US12662540B2, “Compositions and methods for inhibition of MICA/B shedding” (DANA-FARBER CANCER INSTITUTE, INC., priority 2017, dated 2026).
Entries after “also recorded” stand apart in the source; their conditions may differ.

What was measured:
[1] = test system: A375 cells; test: NK cell cytotoxicity assay (51Cr release), human NK cells against human tumor cells; format: cell-based
Description: Human NK cells were isolated from fresh leukapheresis blood collars that had been generated by Brigham & Women's Hospital, Boston, from healthy donors. Samples were diluted with an equal volume of PBS and blood mononuclear cells were isolated by Ficoll density gradient centrifugation. Cells were washed with PBS, and NK cells were isolated by negative selection using the Human NK Cell Isolation Kit (130-092-657, Miltenyi Biotech) using an autoMACS system (Miltenyi Biotech). Enriched NK cells (purity of 50-90%) were then incubated with anti-CD56 (PE or APC conjugated) and anti-CD3 (FITC or Pacific Blue conjugated) (Biolegend) and sorted using a BD FACS Aria. Following sorting, NK cell purity was ˜99%. These cells were cultured for twelve hours in complete RPMI media supplemented with 300-1000 U/ml of recombinant human IL-2 (BD Pharmingen).
Target cells were labeled for 1 hour with 100 μCi of ^51[Cr] per 2×10^6 cells in 0.2 ml of media. Subsequently, cells were washed and plated in V-bottom 96-wells plates (5,000 target cells per well). To determine the experimental release, NK cells were added in an equal volume, but at different ratios. To determine maximum and spontaneous release, target cells were mixed with an equal volume of 2% Triton-X100 in PBS or an equal volume of media, respectively. Antibodies were added at a final concentration of 10 μg/ml.
For experiments shown in FIGS. 1E, 10, and 13E antibodies were added at the time of the killing assay. For FIGS. 3A-B, antibodies were added to tumor cells 48 hours prior to labelling with ^51[Cr] to inhibit MICAS shedding. The isotype control antibody for assays with human NK cells was recombinant human IgG1 Fc (BE0096, BioXcell). […] At the end of the incubation period, plates were centrifuged (2000 rpm, 5 minutes), part of the supernatant was collected, mixed with scintillation fluid, and radioactivity was quantified using a MicroBeta2 reader (Perkin Elmer). Specific killing was calculated using the following formula: 100×(Experimental release−Spontaneous release)/(Maximum release−Spontaneous release).

[2] = test system: human NK cells; test: Intracellular interferon-γ production by NK cells co-cultured with tumor cells; format: cell-based; conditions: co-culture with tumor cells, antibody 10 μg/ml
Description: NK cells were co-cultured for 6 hours at a ratio of 5:1 with tumor cells in the presence of Brefeldin-A (Biolegend). After the incubation time, Fc receptors were blocked, cells stained with NK cell markers, stained further with a dead cell marker (Zombie Yellow, Biolegend), and subsequently processed for intracellular interferon-γ labeling. Briefly, cells were fixed with BD Cytofix/Cytoperm™ Fixation and Permeabilization Solution (BD Pharmingen), permeabilized with Permeabilization Wash Buffer (Biolegend), and stained with APC-conjugated anti-human interferon-γ (4S.B3, Biolegend) or appropriate isotype control. Fluorescence spectra were acquired using a LSR Fortessa flow cytometer and analyzed by FlowJo.

[3] = test system: human NK cells; test: NK cell RNA-sequencing after co-culture with antibody-pretreated A375 cells; format: cell-based; conditions: 6 hours co-culture; A375 pretreated 48 hours
Description: Human NK cells were isolated from a healthy volunteer to ˜99% purity. These cells were pre-activated with 1,000 U/ml IL-2 overnight. A375 tumor cells were pre-treated with 10 μg/ml of 7C6-hIgG1 or isotype control (BioXcell BE0096) antibodies for 48 hours. Cells were then washed and NK cells were co-cultured with tumor cells for 6 hours in a 5:1 ratio. Subsequently, human NK cells were re-sorted and total RNA isolated with genomic DNA digestion with QIAGEN RNeasy RNA isolation kit (74134). RNA sequencing libraries were generated using the Kapa mRNAseq kit (KapaBiosystems). The libraries were analyzed by Next-Generation Sequencing and pooled barcoded samples were subjected to VIPER analysis. RNA levels were compared for NK cells from co-cultures treated with 7C6-hIgG1 versus isotype control antibodies. A cut-off of at least 1 Log2 fold change was applied to select genes that were differentially expressed. Gene set enrichment analysis (GSEA) was also performed in order to identify relevant molecular pathways for differentially expressed mRNAs.

[4] = test system: A2058 melanoma cells; test: A2058 metastasis model (NSG mice, human NK cells); format: in vivo
Description: Human NK cell reconstitution of NSG mice was done similar to a previous report (26). Briefly, human NK cells were obtained from fresh blood collars, as described above. Cells were treated overnight with 300 U/ml of recombinant human IL-2 (BD Pharmingen), and 1.5×10^6NK cells were injected intravenously into NSG mice. NK cell survival was supported by intraperitoneal injection of 75,000 U of IL-2 (Peprotech) every other day. Human NK cells survived in NSG mice for approximately one week under these conditions (data not shown) and therefore the last IL-2 injection was given 7 days following NK cell transfer. Furthermore, one day after NK cell inoculation and the first injection of IL-2, NSG mice were also injected intravenously with 1×10^6 A2058 melanoma cells. Two days later, mice were treated with 200 μg 7C6-hIgG1 or isotype control (BioXcell) and again once per week. Mice were bled at multiple time points to measure shed MICA and other serum markers. Euthanasia was performed on day 30 following tumor cell inoculation, lungs were perfused with Indian ink (as described above), fixed in Fekete's solution, and the number of lung metastases was counted. Lungs processed for histology were not perfused but fixed in formalin. Livers were also collected, fixed in formalin solution and the number of metastases was counted, or processed for histology. Following removal of these tissues, mice were fixed in Bouin fixative and processed for necropsy by the Rodent Histopathology Core (Dana-Farber/Harvard Cancer Center). The analysis was performed by a pathologist unaware of the different experimental groups.
Macrophages were depleted by intravenous injection of 0.2 ml clodronate liposomes (Encapsula NanoSciences LLC). In the humanized and B16F10-MICA metastasis models, 0.2 ml of clodronate liposomes or control liposomes were injected i.v. (on the same day of tumor cell inoculation and then once weekly).

[5] = test system: Kupffer cells; test: Analysis of liver macrophages in humanized metastasis model; format: in vivo, NSG mice; conditions: three weeks after tumor cell inoculation
Description: NSG mice were injected i.v with A2058 cells and treated with 7C6-hgG1 or isotype control antibodies as described above. Three weeks following tumor cell inoculation, mice were euthanized and livers were perfused with PBS through the portal vein. Livers were mechanically dissociated and cell suspensions passed through a 70 □ filter. […] Antibodies used for subsequent labeling were APC-CD45.2, APC-CD45.1, BV785-CD11b, BV421-F4/80, BV650-CD80, PE-CD86, FITC-Ly6C, PE-Cy7-Ly6G, PERCP-Cy5.5-CD16/CD32 and Zombie NIR. Cells were acquired in a Sony Spectral Analyzer and data were analyzed by FlowJo.

[6] = test system: human macrophages; test: Inhibition of MICA shedding by macrophages; format: cell-based; conditions: acetylated-LDL, 24 hours, antibody 10 μg/ml
Description: PBMC were isolated from a leukapheresis collar obtained from a healthy donor, and monocytes were isolated by adherence to tissue culture plates (2 hour incubation). Non-adherent cells were then washed away and M-CSF was added at 100 ng/ml in RPMI-1640 media supplemented with 10% FBS, Glutamax and Penicillin/Streptomycin. Visual inspection of cell morphology on day 5 confirmed that monocytes had differentiated into macrophages. Macrophages were treated for 24 hours in 96-well plates with different concentrations of acetylated LDL as well as MICA antibodies (10 μg/ml). Shed MICA in supernatants was examined by ELISA (Abcam) and cell surface density of MICA/B was quantified by flow cytometry.

B1: 7C6-hIgG1: recombinant 7C6 with Fc segment replaced by human IgG1 (antibody, V domains shown)
VH: QIQLVQSGPELKKPGETVKVSCKASGYMFTNYAMNWVKQAPEKGLKWMGWINTHTGDPTYADDFKGRIAFSLETSASTAYLQINNLKNEDTATYFCVRTYGNYAMDYWGQGTSVTVSS
VL: DIQMTQTTSSLSASLGDRVTISCSASQDISNYLNWYQQKPDGTVKLLIYDTSILHLGVPSRFSGSGSGTDYSLTISNLEPEDIATYYCQQYSKFPRTFGGGTTLEIK
[1]; A375 treated 48 hours, 4 hour co-culture with human NK cells
  NK cell-mediated cytotoxicity against antibody-pretreated A375 cells: triggered stronger NK cell-mediated cytotoxicity than the 7C6-hIgG1-DANA mutant
[1]; human NK cells, antibody added at time of killing assay (10 μg/ml, 66.7 nM)
  NK cell mediated cytotoxicity against human tumor cells: enabled strong NK cell mediated killing of human tumor cells; also recorded: exhibit cytotoxicity against A375 cells
[2]
  IFNγ (cytokine) production by human NK cells: produced higher levels of IFNγ
[3]
  gene expression by human NK cells: upregulated genes associated with NK cell activation and effector functions
[4]; NSG mice reconstituted with human NK cells, day 30
  number of lung metastases: had fewer lung metastases; also recorded: reduces number of lung metastases in the presence of human NK cells
[4]; clodronate liposomes, no NK cell reconstitution, 3 weeks
  activity against liver metastases after macrophage depletion: abrogated the therapeutic activity
[4]; day 30
  number of organs with metastases (metastatic load): reduced the number of organs with metastases; also recorded: significantly reduced metastatic load in the absence of transferred NK cells
[4]; mice reconstituted with human NK cells
  survival: significant survival benefit; also recorded: increases the survival of mice
[4]; with or without NK cell transfer, day 30
  number of liver metastases: substantially reduced the number of liver metastases even without NK cell transfer; also recorded: shows significant therapeutic activity against liver metastases even in the absence of NK cells
[5]
  CD80 expression by Kupffer cells: higher surface levels of the CD80 activation marker; also recorded: increased expression of CD80 by Kupffer cells
[6]
  MICA and MICB surface levels on macrophages: increased MICA and MICB surface levels on macrophages
  MICA shedding by macrophages: inhibited MICA shedding
